assay: soluble on expression in E. coli; label from the status in PepcDB or PDB records

Row | Sequence | soluble on expression in E. coli
1 | GPGSMKGKAGRSIAAISDVRAAVLRFCDEQLSRRLDTQPVAEVHQKVSACVQTVDPAMTPYIFGSTAVLGVHEQGSDVDFVCLSPTDVQDGKGADAVSEVAKGLQSDFLFRLGEVVKREHYLWGIELVRRTRVPVLRVKGGLGVDGVSFDVTANRRNGVRNSALLRAYFTQCPEARWLSMLVKQWSKKTGLNASVEGGCITSYGWNIMIVYYLLRRRLVTLVPVESCDVADIAPMPPHMPLESLQQGGQGLADMLMDFVSYYLDEFAPETEVMSLTRAAGETTTEMLSWTKQAEDMARIRGEKIHYRWCIEDPYEYDLNVGRNVTPFKLMLLRKHLERARETALLLLATPPPSATARSVK | not soluble
2 | MVTPLTGTHEGVSCDGCAFTAFAGNRYKCLRCSDYDLCFSCFTTKNYGDQQTIADIPIHDESHPMQLILSSVDFDLVYQGDPTRHYDERKIVSFTCPYCNITGLTERQFGTHVLSQHPEAPGYSVICPLCIGNTEMEHIQSKETENLSVHWTEIHLHTMENLFRSTEPITTRPVQRRPMLARRGNRAGVSRTAAQGRPLQDEIGAEMAALLRNMGPDSVEDIRRFTEMMTVPLLPGIRSSQRLMTSTGDRPTVVVESAVTHQDPNVQQVIRPLATIPIYPPTSDESGDETPQPAADSADESEDDNDIQELDDMQPIVEDEALKKDEFWKTLKTRISEEDVDLILETMKSTAKVKEDIDDKMPVWTQRPLKRLANAAQVTTTSDSEGDPGWLPLSFETTPIRSTGCGGYWSDKRFLRPRKMQREQSVASSNAEIMEKAEIALALIRASCLHEPVFTDPTKPDIALKEALQHLRLGEKPAKMMEYQAAEELVNMPERDPITTGEMEVEIPDFTARGYGQIVDGNIPLGVVPEADEAITNSEDEEIVGGETSGDDEDEQEDDENDSQDSSVPEEINID | not soluble
3 | MELRELFEVQGELDAHIEKIHPRKEGEKRLEEKILALQTELGEIANEWRQFKFWSNDREPRTERLLEEYVDGFHFVLSIGLEESKRYGQSVPIRLGLPDELTSICYETTIQQFNYLFSEIGRLYDSVTLHEVAADTEVEEAYENIIRMFIGLGEKLGFTEKEIAEGYMRKNMINHERQKNGY | not soluble
4 | MGSDKIHHHHHHMKKFYDEMHASGDKVREHYAGYERWLAQQPHESMKGHRDEAEMIFRRVGITFAVYGAKDEDGSGTERLIPFDLIPRIIPAQEWREMEKGLRQRVNALNRFIHDVYHDQEIIKAGIVPGEQVFKNAQFRPEMMGVDVPGNVYSQIAGIDIVRAANPDGSGNYYVLEDNLRVPSGVSYMLENRKMMMRLFPELFSSHRVAPVAHYPDLLLDTLRAVAPPGVAEPTVVVMTPGMYNSAYFEHAFLAQQMGVELVEGQDLFVKDNYLYMRTTQGPRRVDVIYRRIDDDFLDPKAFRADSTIGCAGLLSVYRAGNVNLCNAIGTGVADDKSIYPYVPKMIEFYLGEKPILNNVPTYLCRESEDLQYVLAHLGELVVKEVHGAGGYGMLVGPAASKAEIEEFRTQLVANPSNYIAQPTLALSTCPTFVESGIAPRHIDLRPFVLSGKTVQMVPGGLTRVALKEGSLVVNSSQGGGTKDTWMLEA | not soluble
5 | MAQLYFYYSAMNAGKSTALLQSSYNYQERGMRTVVYTAEIDDRFGAGKVSSRIGLSSPAKLFNQNSSLFDEIRAEHEQQAIHCVLVDECQFLTRQQVYELSEVVDQLDIPVLCYGLRTDFRGELFIGSQYLLAWSDKLVELKTICFCGRKASMVLRLDQAGRPYNEGEQVVIGGNERYVSVCRKHYKEALQVGSLTAIQERHRHD | not soluble
6 | MLSQLPLFAGGEIVRGFGRGSKELGIPTANFPLEVVKSLPESLPTGAYYGWANVDNGPVHKMVLSIGWNPFYNNKEKSVETHMLHDFNCDLYGQTLKICIVGYLRPERSFDSLESLIAAIRGDIEQAKAFLDEADKAKLKEAPFFTEKLCSSKLEHHHHHH | not soluble
7 | MPPAGQDDLDFLKYAMESYVADVNADIGKTTIVFTLREKAGALAETLKLFQAHDVNLSHIESRPSKTHEGCYEVLVEFAEAEDHRKIEGVIEHFQQKAEKKVLVQDWNTKNKQNKDSVPWFPQKINDIDQFANRILSYGAELDADHPGFKDMTYRERRKFFADIAFNFKHGDKIPTITYTDEEIATWRTVYNELTVMYPKNACQEFNYIFPLLQQNCGFGPDRIPQLQDVSDFLKDCTGYTIRPVAGLLSSRDFLAGLAFRVFHSTQYIRHHSAPKYTPEPDICHELLGHVPLFADVEFAQFSQEIGLASLGAPDDVIEKLATLYWFTIEFGICQQDGEKKAYGAGLLSSFGELQYALSDKPEVVDFDPAVCCVTKYPITEYQPKYFLAESFASAKNKLKSWAATINRPFQIRYNAYTQRVEILDKVAALQRLARDIRSDISTLEEALGKVNNLKMK | not soluble
8 | MRFVDFFNALLEGKVIGQKCGDCGSYTCPPKATCDNCGSRNLEAVELSGKGVIRTFTTTYVAPSGYTNEAPYTVAMVELDEGPWIVGRIDLPNEEIEKFGQDLIGARVSVYGKEFPTEPFYPDKKRRVVPMFRLEGLEHHHHHH | soluble
9 | MGSSHHHHHHSSGLVPRGSHMFKPKKKLGQCFLIDKNFVNKAVESANLTKDDVVLEIGLGKGILTEELAKNAKKVYVIEIDKSLEPYANKLKELYNNIEIIWGDALKVDLNKLDFNKVVANLPYQISSPITFKLIKRGFDLAVLMYQYEFAKRMVAAAGTKDYGRLSVAVQSRADVEIVAKVPPSAFYPKPKVYSAIVKIKPNKGKYHIENENFFDDFLRAIFQHRNKSVRKALIDSSKELNYNKDEMKKILEDFLNTNSEIKNLINEKVFKLSVKDIVNLSNEFYRFLQNRGRL | soluble
10 | MGHHHHHHSHMYFFSKHPEASIQAVFSDAQMHIWALEGLSHLVAASFTEDRFGVVQTTLPAILNTLLTLQEAVDKYFKLPHASSKPPRISGSLVDTSYKTLRFAFRASLKTAIYRITTTFGEHLNAVQASAEHQKRLQQFLEFKE | soluble
11 | MSNVVVCALYKFVSLPHFESLREPLLSMMEQAEIKGTLLLASEGINGTVAGNQAAIDALLIWLNQQNGLENITYKLSFDDEMPFYRTKVKLKKEIVTMGVEGIDPLKVVGTYVKPKDWNALISDPEVVLVDTRNDYEVQIGTFKNAINPVTETFREFPEYVKQNLDPAKHKKVAMFCTGGIRCEKSTAYLKEQGFEEVYHLEGGILKYLEEVNKAESLWEGECFVFDNRVAVDHDLKKGQYDQCNACRMPITEAEKLTPDYVQGVSCPHCIDKISEEQRKRFVERERQVNLAKSRNEAHIGSDVNHVIEARRQKKEALRKQSAEKNKAKQANALEHHHHHH | soluble
12 | MGSDKIHHHHHHMIAEPFLFRSEGGFIRIPIWGHIPLSAPLKKILAHPSFLRLKGIRQLSFAQQVYPGANHTRFEHSIGVYHLMKMILQRMVSNPLALELQDERLQFDDETCRTLLATCLLHDIGHYPHAHVLEEITPAGDSSAVFAHHESLTGQFLNEEHRDTPSIAAILHDDWQVNPDTVTEIIAGKTAHRLGKLVSGTLDPDKMDYLMRDAHHCNIPYGSIDIERLIESFVPDPERQRLAITEKGIAPLESLLFAKYMMMRNVYWHHTSRTFSTMLRRLLQDVADESALPMETLRELFYFNSDDRVLFELERAIRGLGLPAAELLDAILERRVYKRAMTIRPYHEPSMEIDPVWFAYNTSHRRRKEKELEICAMLAGKTGKRLAGHEVLIDAPPSKDVFDYSDFRELRIWPTKSEHRHLVQPTDSNGYVRFDDFRESVFGSDFILSFEQYTKKFRLLCRHDLVDTLSGLEEAVVEILRR | not soluble
13 | GAMAQKNEDECAVCRDGGELICCDGCPRAFHLACLSPPLREIPSGTWRCSSCLQATVQEVQPRAEE | soluble
14 | METRLLVLKYDILNREAICLNRETHELLHANLVESVQPQIGQFLAVENLKIVQIDGVCFISPECGTIVIEPPAPEDCVILPKEKTDVVMFKSWIGFSSDPSHLTYDRNIGYADWYGPVNCSQFKAKNTKVAFFKYLIAVNDLDYKNTGECLMKAVQLVGVIDNRDAAEVRLKMMEFERKRIADIQRTTKQTRLIETVAYPILPSAHQPSSNHSYTGRSSCDSLRPQPVPAARKLSEQPQTVQNQAPYREQINQQRSVTNSIYGEFSGVGRTDQPLETANSRGSTEYYSGRSSSSSDQVIRNEPQLPNPAPILPESMGMVTYENGIMQIVYLRSVQKAAIHYWSKHQITTSLGSVFNCSFKPIPVQATTHWAPFEITAINNVNNEKNEVKTVGKECFALFKVDLSRPEGKFSKWTTIGGNPIFSCEIVGYVMLAHSVLGPQQNQLSILNVAQNYYNRKVAENICCFCRFVRRQVPRMMVDSHWISEDEEVEVFIWELVEIVGASELYRKRQEQLEIGNLGDTADNVKRHNDDIEMQKKRAQQEHFAQQQRPAGSSNSYQTENAQQHSMSNNMQYYHSQAPPVSSRSSISLGETAEFKNKLERTNDMMESLCDAIKKFLDNRQLKETLRGYNPRRLQALEEKLKECSEHLENN | not soluble
15 | MAKVKRRDLLKAGAALAAAGTLGKGFAQEFYASPPTLLPRSRAPRVVVVGGGWGGTTVARKVKQQNPGVEVVLVEQKPIFMSCPMSNLFLAGVKPLEWLVFDYTNVVKDGVIFVQEKVLEINRDRRLVRTTGGYLAYDFLVLAPGIDYMYEAIPGYEEAKHFLPVGFKPFEHIALRRMLDRFDETGGELVMYIPPPPYRCPPGPYERAAMLAWRLKTKGVKGKVIVLDANPQPLAKAPGFLAAYNELYKDYLEYQPNMRITGLDYEKKVVRTELGDYPFTLANVIPPMKAAEIVRQAGLGERWANVRIPYFLSEADDRVYLVGDITGNTPYPKSGMIAYVSGTIVARHLTERLKGKPLAEIPPELPTNICYSFVDSEEAIWVSANYSWDEAEKRIKAQSQVDNQRSKANGEAAIGWALGLWNDMFGPA | soluble
16 | MGSDKIHHHHHHMINRELYMEQITPFIDKPFVKVITGIRRCGKSVVLRLIREELLRRGVSEDYIIYMNFESFEWIDMKEAKALYAHIREATKASGKYYILLDEIQEVTDWEKAVNAFLVDLDVDIYVTGSNSRLLSSEFSTYLAGRYVAFHIMTLSFREYLLFHDLPLTISVSDRKTEFLKYLRMGGFPAIHTANYDYNAIYKIVYDIYSSVILRDTVQRHSIRNVEMLERVVKFVFDNIGNKLNAKNIADYFKSQQRKVDINTIYNYLNALDSAFVIQRIPRYDIKGKEILQTNEKYFVSDLSLIYSVMGYRDRLIGGMLENLVCMELKRRGYEVYVGKQDEKEVDFVAIRREEKIYVQVTYQLGLQATIDREFAPLLAIDDHYPKYVVSMDDLWQDNIEGVKHRHIADFLLDEW | not soluble
17 | MGSDKIHHHHHHMSETSDTIREAFTESAWIPSPKEVFGPDGSLTEEVGEENKSLIWTLLKQIRPGMDLSKVVLPTFILEPRSFLEKLADYYYHADLISEAVAEPDPFQRIVKVTKFFLSGFYKKPKGLKKPYNPILGETFRCKWEHPDGSTTFYMAEQVSHHPPVSSLFITNRKAGFNISGTILAKSKYYGNSLSAILAGKLRLTLLNLGETYIVNLPYANCKGIMIGTMTMELGGEVNIECEKTGYRTTLDFKLKPMLGGAYNQIEGSIKYGSDRLASIEGAWDGVIRIKGPDGKKELWNPTPEVIKTRLPRYEINMDEQGEWESAKLWRHVTEAISNEDQYKATEEKTALENDQRARAKSGIPHETKFFKKQHGDDYVYIHADYRPWDNNNDIQQIENNYVVKTISRHSKRKTGNSEQLGSDNTSEASESDEE | not soluble
18 | MRLRKKPWARPALEACSFFVINPTEYKGKWREVFGNSNEIWLELGCGKGGFISKLASTNPDKNFIAVDIKDEVLALAMKKIENEYALIGAETKNIRLMAHEIMLIHRMLDENDQIGRIFINFCNPWPKNRHKARRLTHPNQLNQYRTFLAPNGQIWFKTDDTMLFQDSIKYFEQCNFNIVYLTEDLHASGFEGNIETEHERMFLEQGCKIKFLIAEKK | soluble
19 | DWVIPPINLPENSRGPFPQELVRIRSDRDKNLSLRYSVTGPGADQPPTGIFIINPISGQLSVTKPLDRELIARFHLRAHAVDINGNQVENPIDIVINVIDMNDNRPEFLHQVWNGSVPEGSKPGTYVMTVTAIDADDPNALNGMLRYRIVSQAPSTPSPNMFTINNETGDIITVAAGLDREKVQQYTLIIQATDMEGNPTYGLSNTATAVITVTD | soluble
